Measurements taken from patent US20240100176A1 (Eli Lilly, published 2024).

T1: hexahistidine-tagged cynomolgus monkey IL-4Rα extracellular domain (cynomolgus monkey, UniProt P24394 26-231 (human entry))
T1 construct: also called cynomolgus monkey IL-4Rα ECD; not shown: hexahistidine tag
T1 chain: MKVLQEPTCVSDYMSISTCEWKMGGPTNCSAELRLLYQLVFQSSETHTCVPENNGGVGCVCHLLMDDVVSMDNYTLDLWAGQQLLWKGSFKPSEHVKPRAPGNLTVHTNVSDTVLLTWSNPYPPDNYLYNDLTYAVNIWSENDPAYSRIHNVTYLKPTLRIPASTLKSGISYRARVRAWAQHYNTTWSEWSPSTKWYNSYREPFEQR


How the values were obtained:
[1] = target: T2, hexahistidine tagged human IL-4Rα ECD Q181R (human, UniProt P24394 26-232); assay: capture ELISA: Ab1 on anti-human IgG Fc, His-tagged receptor at 1 µg/mL, anti-His HRP
T2 construct: not shown: hexahistidine tag
Source text: (§1) Example 2d. […] Briefly, thirty surface amino acid residue substitutions were introduced individually into hexahistidine tagged human IL-4Rα extra cellular domain (ECD) as follows: K2D, E6R, K22D, P26R, T31R, F41A, L42G, L43G, E45R, E52R, G56R, D66R, A71R, Q82G, K87D, E94R, H107A, D108R, P124R, D125R, D143R, R148D, L155R, R160D, S164R, S168R, Q181R, P192R, K195D, or H197G. Each mutant protein having a single amino acid residue substitution as described above was transiently expressed in CHO cells and purified using standard immobilized metal affinity chromatography techniques. […] The plates were then washed 3 times with PBST and the exemplified human IL-4Rα antibody was added to the wells at a final concentration of 1 μg/mL in PBS-casein and incubated for 1 hour at room temperature. The plates were washed 3 times with PBST, the IL-4Rα mutant proteins were serially diluted 5-fold from 1 μg/mL for 3 points. in PBS-casein and added to the plate at 50 μL/well and incubated for 1 hour at room temperature. The plates were washed 3 times with PBST and a 1000-fold dilution of anti-histidine tag antibody HRP conjugate (R&D Systems, Cat. #MAB050H) in PBS-casein was added and incubated for 45 minutes at room temperature. The plates were washed 3 times, TMB substrate (Pierce, Cat. #34028) was added per manufacturer instructions, the reaction was quenched with H₂SO₄, and absorbance was read at 450 nm on an ELISA plate reader.

[2] = target: T3, hexahistidine tagged human IL-4Rα ECD P124R (human, UniProt P24394 26-232); assay: as above
T3 construct: not shown: hexahistidine tag
Source text: as §1

[3] = target: T4, human FcγRI (CD64) extracellular domain (human, UniProt P12314 16-292); assay: SPR (Biacore), antibody captured on protein A, FcγR ECD as analyte, 25 °C
T4 construct: extracellular domain
Protocol: Unreacted sites were blocked with a 7 minute injection of ethanolamine at 10 μL/minute. Injections of 2×10 μL of glycine, pH 1.5, was used to remove any noncovalently associated protein. Running buffer was 1×HBS-EP+(TEKNOVA, P/N H8022). The FcγR extracellular domains (ECDs)-FcγRI (CD64), FcγRIIA_131R, and FcγRIIA_131H (CD32a), FcγRIIIA_158V, FcγRIIIA_158F (CD16a), and FcγRIIb (CD32b) were produced from stable CHO cell expression and purified using IgG Sepharose and size exclusion chromatography. For FcγRI binding, antibodies were diluted to […] in running buffer, and approximately 150 RU of each antibody was captured in FCs 2 through 4 (RU captured). FC1 was the reference FC, therefore no antibody was captured in FC1. […] Duplicate injections of each concentration were injected over all FCs at 40 μL/minute for 120 seconds followed by a 1200 second dissociation phase. Regeneration was performed by injecting 15 μL of 10 mM glycine, pH 1.5, at 30 μL/minute over all FCs. […] The affinity (KD) was calculated using either steady state equilibrium analysis with the Scrubber 2 Biacore Evaluation Software or a “1:1 (Langmuir) binding” model in BIA Evaluation. […] The affinity (KD) was calculated using the steady state equilibrium analysis with the Scrubber 2 Biacore Evaluation Software. […]

[4] = target: T1, hexahistidine-tagged cynomolgus monkey …; assay: competition MSD ELISA (solution equilibrium, 37 °C), apparent KD, mean of 3 experiments
Protocol: Example 3a. […] A 96-well multi-array plate (Meso Scale Diagnostics, Cat. #L15XA-3) was coated at 4° C. overnight with 0.5 μg/mL hexahistidine-tagged human or cynomolgus monkey IL-4Rα ECD in phosphate buffered saline (PBS). Following coating, plates were washed 10 times with 200 μL PBST (PBS with 0.05% Tween® 20) and blocked with 300 μL/well of PBS casein blocking buffer (Pierce, Cat. #37528) at 37° C. for 1 hour. Plates were then washed 10 times as above, and 50 μL of the preincubated antibody:IL-4Rα dilution series was transferred to the wells and incubated at 37° C. with 300 rpm shaking for […]. Plates were washed 10 times with PBST, 50 μL of 1 μg/mL anti-human antibody sulfo-tag 20 (Meso Scale Diagnostics, Cat. #R32AJ-1) was added to the plates for the assay of Table 7a, and anti-Human NHP Kappa Light chain SULFO-TAG 20 (Meso Scale Diagnostics, Cat #D20TF-6) was added to the plates for the assay of Table 7b, and plates were incubated at 37° C. with 300 rpm shaking for 30 minutes. Plates were washed 10 times with PBST, 150 μL/well of 1× Read Buffer T was added to the wells and analyzed on a SECTOR® Imager 6000 (Meso Scale Diagnostics) 15 min after buffer addition. The apparent KD is determined by fitting a sigmoidal curve to the electrochemiluminescence (ECL) response vs. log (soluble IL-4Rα concentration) using GraphPad Prism 9. Data is graphed with normalized ECL values.

T2 sequence (P24394 26-232 Q206R): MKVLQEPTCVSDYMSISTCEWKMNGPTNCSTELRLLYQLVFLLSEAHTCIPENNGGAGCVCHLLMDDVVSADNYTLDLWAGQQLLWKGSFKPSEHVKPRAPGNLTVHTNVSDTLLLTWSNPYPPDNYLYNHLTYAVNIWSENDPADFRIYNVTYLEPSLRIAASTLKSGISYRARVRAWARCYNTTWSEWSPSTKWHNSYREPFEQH
T4 sequence (P12314 16-292): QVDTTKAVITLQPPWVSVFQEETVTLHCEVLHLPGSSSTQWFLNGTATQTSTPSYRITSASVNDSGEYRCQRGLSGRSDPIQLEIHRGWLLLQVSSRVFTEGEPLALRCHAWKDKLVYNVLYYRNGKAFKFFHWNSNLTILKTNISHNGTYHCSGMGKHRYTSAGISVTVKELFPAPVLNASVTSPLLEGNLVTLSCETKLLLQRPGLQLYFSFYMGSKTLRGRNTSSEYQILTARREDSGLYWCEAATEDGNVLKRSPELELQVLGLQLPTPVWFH
T3 sequence (P24394 26-232 P149R): as the sequence (P24394 26-232 Q206R) above, with P124R, R181Q counted along it

ELISA (OD450) [1] [OD450]	ELISA (OD450) [2] [OD450]	Kd [3] [nM]	Kd [4] [nM]	Binder
1.91	1.84			anti-human IL-4Rα antibody Ab1 (antibody, human IgG4 S228P, kappa, human kappa light chain; also called anti-human IL-4Rα Ab1; unconjugated Ab1) heavy: QVQLVESGGGLVQPGGSLRLSCVASGFTFSHSSMNWVRQAPGKGLEWVSYISRATGAVYYADSVKGRFTISRDNAKNSLYLQMNSLRDEDTAVYYCAREPVFDYWGQGTLVTVSSASTKGPCVFPLAPCSRSTSESTAALGCLVKDYFPEPVTVSWNSGALTSGVHTFPAVLQSSGLYSLSSVVTVPSSSLGTKTYTCNVDHKPSNTKVDKRVESKYGPPCPPCPAPEFLGGPSVFLFPPKPKDTLMISRTPEVTCVVVDVSQEDPEVKFNWYVDGVEVHNAKTKPREEQFNSTYRVVSVLTVLHQDWLNGKEYKCKVSNKGLPSSIEKTISKAKGQPREPQVYTLPPSREEMTKNQVSLTCLVKGFYPSDICVEWESNGQPENNYKTTPPVLDSDGSFFLYSRLTVDKSRWQQGNVFSCSVMHEALHNHYTQKSLSLSLG light: DIQMTQSPSAMSASVGDRVTITCRASQDISNYLAWFQQKPGKVPTRLIYAASSLQSGVPSRFSGSGSGTEFTLTISSLQPEDFATYYCLQWSSYPRTFGQGTKVEIKRTVAAPSVFIFPPSDEQLKSGTASVVCLLNNFYPREAKVQWKVDNALQSGNSQESVTEQDSKDSTYSLSSTLTLSKADYEKHKVYACEVTHQGLSSPVTKSFNRGEC
		0.64	0.0458	anti-human IL-4Rα Ab1 GC conjugate of Example 1b (n=4) (antibody, human IgG4 S228P, kappa, glucocorticoid receptor agonist payload-linker (GC-L, Preparation 8) conjugated to the engineered cysteines at the 124 and 378 position of the heavy chain (EU numbering); n is 4 (average DAR 4.17 by RP-HPLC, 3.85 by TOF MS)) heavy: QVQLVESGGGLVQPGGSLRLSCVASGFTFSHSSMNWVRQAPGKGLEWVSYISRATGAVYYADSVKGRFTISRDNAKNSLYLQMNSLRDEDTAVYYCAREPVFDYWGQGTLVTVSSASTKGPCVFPLAPCSRSTSESTAALGCLVKDYFPEPVTVSWNSGALTSGVHTFPAVLQSSGLYSLSSVVTVPSSSLGTKTYTCNVDHKPSNTKVDKRVESKYGPPCPPCPAPEFLGGPSVFLFPPKPKDTLMISRTPEVTCVVVDVSQEDPEVKFNWYVDGVEVHNAKTKPREEQFNSTYRVVSVLTVLHQDWLNGKEYKCKVSNKGLPSSIEKTISKAKGQPREPQVYTLPPSREEMTKNQVSLTCLVKGFYPSDICVEWESNGQPENNYKTTPPVLDSDGSFFLYSRLTVDKSRWQQGNVFSCSVMHEALHNHYTQKSLSLSLG light: DIQMTQSPSAMSASVGDRVTITCRASQDISNYLAWFQQKPGKVPTRLIYAASSLQSGVPSRFSGSGSGTEFTLTISSLQPEDFATYYCLQWSSYPRTFGQGTKVEIKRTVAAPSVFIFPPSDEQLKSGTASVVCLLNNFYPREAKVQWKVDNALQSGNSQESVTEQDSKDSTYSLSSTLTLSKADYEKHKVYACEVTHQGLSSPVTKSFNRGEC
